Experimental data reported in patent US20160039947A1 (Eli Lilly, published 2016).

B1: matuzumab IgG1 (mG1) (antibody, V domains shown)
VH: QVQLVQSGAEVKKPGASVKVSCKASGYTFTSHWMHWVRQAPGQGLEWIGEFNPSNGRTNYNEKFKSKATMTVDTSTNTAYMELSSLRSEDTAVYYCASRDYDYDGRYFDYWGQGTLVTVSS
VL: DIQMTQSPSSLSASVGDRVTITCSASSSVTYMYWYQQKPGKAPKLLIYDTSNLASGVPSRFSGSGSGTDYTFTISSLQPEDIATYYCQQWSSHIFTFGQGTKVEIKG
notes: also called matuzumab (anti-EGFR) control IgG
B2: HEDesign λλ (anti-HER-2/anti-EGFR IgG BsAb with Fab redesigns) (bispecific antibody)
heavy 1: EVQLVESGGGLVQPGGSLRLSCAASGFTFTDYTMDWVRKAPGKGLEWVADVNPNSGGSIYNQEFKGRFTLSVDRSKNTLYLQMNSLRAEDTAVYYCARNLGPSFYFDYWGQGTLVTVSSASTKGPSVFPLAPSSKSTSGGTAALGCLVKDYFPEPVTVSWNSGALTSGVATGPAVLQSSGLYSLSSVVTVPSSSLGTQTYICNVNHKPSNTKVDKKVEPKSCDKTHTCPPCPAPELLGGPSVFLFPPKPKDTLMISRTPEVTCVVVDVSHEDPEVKFNWYVDGVEVHNAKTKPREEQYQSTYRVVSVLTVLHQDWLNGKEYKCKVSNKALPAPIEKTISKAKGQPREPQVYTLPPSRDELTKNQVSLTCLVKGFYPSDIAVEWESNGQPENNYDTTPPVLDSDGSFFLYSDLTVDKSRWQQGNVFSCSVMHEALHNHYTQKSLSLSPG
light 1: RIQMTQSPSSLSASVGDRVTITCKASQDVSIGVAWYQDKPGKAPKLLIYSASYRYTGVPSRFSGSGSGTDFTLTISSLQPEDFATYYCQQYYIYPYTFGQGTKVEIKGQPKAAPSVTLFPPSSEELQANKATLVCYISDFYPGAVTVAWKADSSPVKAGVETTTPSKQSNNKYAAWSYLSLTPEQWKSHRSYSCQVTHEGSTVEKTVAPTEC
heavy 2: QVQLVQSGAEVKKPGASVKVSCKASGYTFTSHWMHWVRYAPGQGLEWIGEFNPSNGRTNYNEKFKSKATMTVDTSTNTAYMELSSLRSEDTAVYYCASRDYDYDGRYFDYWGQGTLVTVSSASTKGPSVFPLAPSSKSTSGGTAALGCLVKDYFPEPVTVSWNSGALTSGVHTFPAVLQSSGLYSLSSVVTVPSSSLGTQTYICNVNHKPSNTKVDKKVEPKSCDKTHTCPPCPAPELLGGPSVFLFPPKPKDTLMISRTPEVTCVVVDVSHEDPEVKFNWYVDGVEVHNAKTKPREEQYQSTYRVVSVLTVLHQDWLNGKEYKCKVSNKALPAPIEKTISKAKGQPREPQVYTLPPSRKELTKNQVSLTCLVKGFYPSDIAVEWESNGQPENNYKTTPPVLKSDGSFFLYSKLTVDKSRWQQGNVFSCSVMHEALHNHYTQKSLSLSPG
light 2: DIQMTQSPSSLSASVGDRVTITCSASSSVTYMYWYQRKPGKAPKLLIYDTSNLASGVPSRFSGSGSGTDYTFTISSLQPEDIATYYCQQWSSHIFTFGQGTKVEIKGQPKAAPSVTLFPPSSEELQANKATLVCLISDFYPGAVTVAWKADSSPVKAGVETTTPSKQSNNKYAASSYLSLTPEQWKSHRSYSCQVTHEGSTVEKTVAPTEC
notes: also called HE Designs
B3: HEDesign κλ (anti-HER-2/anti-EGFR IgG BsAb with Fab redesigns) (bispecific antibody)
heavy 1: B2 heavy 1
light 1: RIQMTQSPSSLSASVGDRVTITCKASQDVSIGVAWYQDKPGKAPKLLIYSASYRYTGVPSRFSGSGSGTDFTLTISSLQPEDFATYYCQQYYIYPYTFGQGTKVEIKRTVAAPSVFIFPPSDEQLKSGTASVVCYLNNFYPREAKVQWKVDNALQSGNSQESVTEQDSKDSTYSLWSTLTLSKADYEKHKVYACEVTHQGLSSPVTKSFNRGEC
heavy 2: B2 heavy 2
light 2: B2 light 2
notes: also called HE Designs
B4: HEDesign λκ (anti-HER-2/anti-EGFR IgG BsAb with Fab redesigns) (bispecific antibody)
heavy 1: B2 heavy 1
light 1: B2 light 1
heavy 2: B2 heavy 2
light 2: DIQMTQSPSSLSASVGDRVTITCSASSSVTYMYWYQRKPGKAPKLLIYDTSNLASGVPSRFSGSGSGTDYTFTISSLQPEDIATYYCQQWSSHIFTFGQGTKVEIKRTVAAPSVFIFPPSDEQLKSGTASVVCLLNNFYPREAKVQWKVDNALQSGNSQESVTEQDSKDSTYSLSSTLTLSKADYEKHKVYACEVTHQGLSSPVTKSFNRGEC
notes: also called HE Designs
B5: Anti-Axl IgG1 (AxlG1) (antibody, V domains shown)
VH: EVQLVESGGGLVQPGGSLRLSCAASGFSLSGSWIHWVRQAPGKGLEWVGWINPYRGYAYYADSVKGRFTISADTSKNTAYLQMNSLRAEDTAVYYCAREYSGWGGSSVGYAMDYWGQGTLVTVSS
VL: DIQMTQSPSSLSASVGDRVTITCRASQDVSTAVAWYQQKPGKAPKLLIYSASFLYSGVPSRFSGSGSGTDFTLTISSLQPEDFATYYCQQSYTTPPTFGQGTKVEIKG
notes: also called anti-Axl antibody YW327.6S2 control IgG

How the values were obtained:
hHER-2-Fc [1] = molecular target: T1, hHER-2-Fc (human, UniProt P04626 23-652); assay: sandwich ELISA: hHER-2-Fc coated, IgG, hEGFR-Fc-biotin detection
T1 construct: Coated unlabelled in the sandwich ELISA; biotinylated and captured on an SA chip in the SPR assay; also called human HER-2-Fc; hHER-2-Fc-biotin; not shown: Fc part of the bought fusion protein
Experimental: (§1) Two sandwich ELISAs are developed, one for detecting anti-HER-2/anti-EGFR BsAb activity and one for detecting anti-cMET/anti-Axl BsAb activity. For both ELISAs, clear 96-well round bottom high binding Immulon microtiter plates (Greiner bio-one, cat#650061) are coated overnight at 2-8° C. with 50 μL/well 1 μg/mL hHER-2-Fc or 1 μg/mL hHGFR(cMet)-Fc (both from R&D systems) in a 50 mM Na₂CO₃ pH 8 buffer. The plates are washed 4 times with PB ST and blocked with 100 μL/well casein buffer (Pierce) for 1 hr at 37° C. The plates are then washed 4 times with PBST and the parental IgG controls or BsAb IgG test articles are added at 50 μL/well and 5 μg/mL and serially diluted 1:3 down the plate. The test articles are incubated on the plate for 1 hr at 37° C. The plates are then washed 4 times with PBST and 50 μL/well 0.2 μg/mL hEGFR-Fc-biotin or hAxl-Fc-biotin (both from R&D systems) is added for 1 hr at 37° C. The plates are then washed 4 times with PBST followed by the addition of a 50 μL/well streptavidin-HRP (Jackson Labs) diluted 1:2000 in PBST. The streptavidin-HRP is incubated in each well for 1 hr at 37° C. The plates are then washed 4 times with PBST and 100 μL/well 1-component TMB substrate is added (KPL laboratories). […] Absorbance (450 nm) of every well in the plates is read using a SpectraMax UV plate reader (Molecular Devices). […]

hHER-2-Fc [2] = molecular target: T1, hHER-2-Fc; assay: sandwich ELISA: hHER-2-Fc coated, BsAb, hEGFR-Fc-biotin detection
Experimental: (§2) Two sandwich ELISAs are developed, one for detecting anti-HER-2/anti-EGFR BsAb activity and one for detecting anti-cMET/anti-Axl BsAb activity. For both ELISAs, clear 96-well round bottom high binding Immulon microtiter plates (Greiner bio-one, cat#650061) are coated overnight at 2-8° C. with 50 μL/well 1 μg/mL hHER-2-Fc or 1 μg/mL hHGFR(cMet)-Fc (both from R&D systems) in a 50 mM Na₂CO₃ pH 8 buffer. The plates are washed 4 times with PB ST and blocked with 100 μL/well casein buffer (Pierce) for 1 hr at 37° C. The plates are then washed 4 times with PBST and the parental IgG controls or BsAb IgG test articles are added at 50 μL/well and 5 μg/mL and serially diluted 1:3 down the plate. The test articles are incubated on the plate for 1 hr at 37° C. The plates are then washed 4 times with PBST and 50 μL/well 0.2 μg/mL hEGFR-Fc-biotin or hAxl-Fc-biotin (both from R&D systems) is added for 1 hr at 37° C. The plates are then washed 4 times with PBST followed by the addition of a 50 μL/well streptavidin-HRP (Jackson Labs) diluted 1:2000 in PBST. The streptavidin-HRP is incubated in each well for 1 hr at 37° C. The plates are then washed 4 times with PBST and 100 μL/well 1-component TMB substrate is added (KPL laboratories). After approximately 10 minutes, […] 1% H₃PO₄ (in H₂O) is added to each plate to quench the reaction. Absorbance (450 nm) of every well in the plates is read using a SpectraMax UV plate reader (Molecular Devices). Biotin-labeling of the hEGFR-Fc and hAxl-Fc proteins is performed using EZ-Link Sulfo-NHS-LC-Biotin (Thermo Scientific) according to the manufacturer's protocol.

hEGFR-Fc = molecular target: T2, hEGFR-Fc (human, UniProt P00533 25-645); assay: as above
T2 construct: Biotin-labelled (EZ-Link Sulfo-NHS-LC-Biotin) as detection reagent in the ELISA; unlabelled second injection in SPR; also called hEGFR-Fc-biotin; not shown: Fc part of the bought fusion protein
Experimental: as §2

hHGFR(cMet)-Fc = molecular target: T3, hHGFR(cMet)-Fc (human, UniProt P08581 25-932); assay: sandwich ELISA: hHGFR(cMet)-Fc coated, IgG, hAxl-Fc-biotin detection
T3 construct: Coated in the sandwich ELISA; second injection in SPR; not shown: Fc part of the bought fusion protein
Experimental: as §1

T3 sequence (P08581 25-932): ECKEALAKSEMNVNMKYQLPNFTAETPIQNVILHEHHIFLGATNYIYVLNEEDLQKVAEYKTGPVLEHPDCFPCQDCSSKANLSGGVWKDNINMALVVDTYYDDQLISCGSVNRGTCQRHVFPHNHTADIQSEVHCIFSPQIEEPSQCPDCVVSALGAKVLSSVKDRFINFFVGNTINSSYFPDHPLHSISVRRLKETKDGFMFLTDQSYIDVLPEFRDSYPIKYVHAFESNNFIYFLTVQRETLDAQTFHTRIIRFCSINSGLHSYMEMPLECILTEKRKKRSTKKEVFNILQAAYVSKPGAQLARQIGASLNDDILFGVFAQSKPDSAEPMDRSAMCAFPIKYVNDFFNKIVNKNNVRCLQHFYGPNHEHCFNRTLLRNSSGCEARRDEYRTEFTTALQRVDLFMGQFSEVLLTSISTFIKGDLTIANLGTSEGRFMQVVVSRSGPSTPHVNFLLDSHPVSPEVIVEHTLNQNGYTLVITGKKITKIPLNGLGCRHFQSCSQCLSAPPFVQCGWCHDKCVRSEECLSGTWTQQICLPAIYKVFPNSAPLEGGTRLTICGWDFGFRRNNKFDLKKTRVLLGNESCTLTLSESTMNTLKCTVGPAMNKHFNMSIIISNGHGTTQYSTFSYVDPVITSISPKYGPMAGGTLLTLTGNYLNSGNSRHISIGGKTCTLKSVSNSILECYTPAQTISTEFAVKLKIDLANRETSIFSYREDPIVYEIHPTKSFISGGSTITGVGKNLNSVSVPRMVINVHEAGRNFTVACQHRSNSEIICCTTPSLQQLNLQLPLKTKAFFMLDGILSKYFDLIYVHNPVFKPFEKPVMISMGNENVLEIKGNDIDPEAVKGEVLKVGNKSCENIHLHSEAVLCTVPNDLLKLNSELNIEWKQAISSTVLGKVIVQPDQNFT

Binder	binding result (hHER-2-Fc [1])	binding result (hHER-2-Fc [2])	binding result (hEGFR-Fc)	binding result (hHGFR(cMet)-Fc)
B1	no binding (tested: 5 µg/mL, serially diluted 1:3)			
B2		binds	binds	
B3		binds	binds	
B4		binds	binds	
B5				no binding (tested: 5 µg/mL, serially diluted 1:3)
